Laboratory results from patent publication US20240309056A1 (NAVIGO PROTEINS, published 2024).
Changes are numbered by the printed parent chain.

Experiments:
[1] = target: T1, ubiquitin mutein 200053; test: SPR (Biacore 3000), ligand multimer immobilised, ubiquitin mutein in solution
T1 construct: also called Affilin-200053
Procedure: (§1) Purified proteins were immobilized via C-terminal Cysteine on a CM-5 sensor chip (GE Healthcare) using NHS/EDC after PDEA activation with a Biacore 3000 system (GE Healthcare). The chip was equilibrated with SPR running buffer (PBS 0.05% Tween pH 7.3). Soluble ubiquitin muteins (Affilin® proteins) applied to the chip in serial dilutions (different concentrations) with a flow rate of 30 μl/min. The association was performed for 120 seconds and the dissociation for 120 seconds. After each run, the chip surface was regenerated with 30 μl regeneration buffer (10 mM glycine pH 2.0) and equilibrated with running buffer. Affilin® proteins accumulated on the surface increasing the refractive index. This change in the refractive index was measured in real time and plotted as response or resonance units versus time.
(§2) Binding studies were carried out using the BIAcore 3000 (GE Healthcare); data evaluation was operated via the BIAevaluation 3.0 software, provided by the manufacturer, by the use of the Langmuir 1:1 model (RI=0). Evaluated dissociation constants (KD) were standardized against the immobilized protein and indicated. Shown is the change in refractive index measured in real time and plotted as response or resonance unit [RU] versus time [sec] (see Table 2).

[2] = target: T2, ubiquitin mutein 77404; test: as above
T2 construct: also called Affilin-77404
Procedure: as §1, §2

[3] = target: T3, ubiquitin mutein 211883; test: as above
T3 construct: also called Affilin-211883
Procedure: as §1, §2

[4] = target: T2, ubiquitin mutein 77404; test: SPR; SEQ ID NO: 2, unmutated
Procedure: as §1, §2

[5] = target: T2, ubiquitin mutein 77404; test: SPR; point mutant M2K
Procedure: as §1, §2

[6] = target: T2, ubiquitin mutein 77404; test: SPR; point mutant F5E
Procedure: as §1, §2

[7] = target: T2, ubiquitin mutein 77404; test: SPR; point mutant K25R
Procedure: as §1, §2

[8] = target: T2, ubiquitin mutein 77404; test: SPR; point mutant D3F
Procedure: as §1, §2

[9] = target: T2, ubiquitin mutein 77404; test: SPR; point mutant Y8Q
Procedure: as §1, §2

[10] = target: T2, ubiquitin mutein 77404; test: SPR; point mutant A16H
Procedure: as §1, §2

[11] = target: T2, ubiquitin mutein 77404; test: SPR; point mutant M23E
Procedure: as §1, §2

[12] = target: T2, ubiquitin mutein 77404; test: SPR (Biacore 3000), ligand immobilised, ubiquitin mutein in solution; Table 1 run; ligand on the chip, Affilin-77404 in solution
Procedure: as §1, §2

[13] = target: T1, ubiquitin mutein 200053; test: SPR (Biacore 3000), ligand immobilised via C-terminal Cys on CM-5, ubiquitin mutein in solution, Langmuir 1:1
Procedure: as §1, §2

[14] = target: T4, ubiquitin mutein 139819; test: as above
T4 construct: Monomer with an insertion of 6 amino acids between positions 9 and 10 of ubiquitin; also called Affilin-139819
Procedure: as §1, §2

[15] = target: T2, ubiquitin mutein 77404; test: as above
Procedure: as §1, §2

[16] = target: T3, ubiquitin mutein 211883; test: as above
Procedure: as §1, §2

B1: SEQ21 trimer (215997) (designed binder)
chain: NAARSDEAQYSAWAEIEALPNLTEMQKDQFIWSLMFDPSVSKEVLGEAQKLNDSQAPKQAPKVDAKFDQAPKVDAKFDNAARSDEAQYSAWAEIEALPNLTEMQKDQFIWSLMFDPSVSKEVLGEAQKLNDSQAPKQAPKVDAKFDQAPKVDAKFDNAARSDEAQYSAWAEIEALPNLTEMQKDQFIWSLMFDPSVSKEVLGEAQKLNDSQAPKC
Work on B1 yielded a Kd [1] of 8.5 nM, a Kd [2] of 0.4 nM and a Kd [3] of 73.4 nM.

B2: SEQ1 trimer (216000) (designed binder)
chain: B1 chain with R4M, S5D, E7F, R82M, S83D, E85F, R160M, S161D, E163F
For B2, the Kd [1] was 6.5 nM, the Kd [2] was 0.3 nM and the Kd [3] was 56.2 nM.

B3: SEQ 21 tetramer (215998) (designed binder)
chain: NAARSDEAQYSAWAEIEALPNLTEMQKDQFIWSLMFDPSVSKEVLGEAQKLNDSQAPKQAPKVDAKFDQAPKVDAKFDNAARSDEAQYSAWAEIEALPNLTEMQKDQFIWSLMFDPSVSKEVLGEAQKLNDSQAPKQAPKVDAKFDQAPKVDAKFDNAARSDEAQYSAWAEIEALPNLTEMQKDQFIWSLMFDPSVSKEVLGEAQKLNDSQAPKQAPKVDAKFDQAPKVDAKFDNAARSDEAQYSAWAEIEALPNLTEMQKDQFIWSLMFDPSVSKEVLGEAQKLNDSQAPKC
B3 was tested, and the Kd [1] was 8.3 nM, the Kd [2] was 0.05 nM and the Kd [3] was 95.7 nM.

B4: SEQ1 tetramer (216001) (designed binder)
chain: NAAMDDFAQYSAWAEIEALPNLTEMQKDQFIWSLMFDPSVSKEVLGEAQKLNDSQAPKQAPKVDAKFDQAPKVDAKFDNAAMDDFAQYSAWAEIEALPNLTEMQKDQFIWSLMFDPSVSKEVLGEAQKLNDSQAPKQAPKVDAKFDQAPKVDAKFDNAAMDDFAQYSAWAEIEALPNLTEMQKDQFIWSLMFDPSVSKEVLGEAQKLNDSQAPKQAPKVDAKFDQAPKVDAKFDNAAMDDFAQYSAWAEIEALPNLTEMQKDQFIWSLMFDPSVSKEVLGEAQKLNDSQAPKC
B4 was tested, and the Kd [1] was 6.5 nM, the Kd [2] was 0.6 nM and the Kd [3] was 93.1 nM.

B5: SEQ21 dimer (215996) (designed binder)
chain: NAARSDEAQYSAWAEIEALPNLTEMQKDQFIWSLMFDPSVSKEVLGEAQKLNDSQAPKQAPKVDAKFDQAPKVDAKFDNAARSDEAQYSAWAEIEALPNLTEMQKDQFIWSLMFDPSVSKEVLGEAQKLNDSQAPKC
For B5, the Kd [1] was 5.5 nM, the Kd [2] was 0.16 nM and the Kd [3] was 78.1 nM.

B6: SEQ1 dimer (215999) (designed binder)
chain: B5 chain with R4M, S5D, E7F, R82M, S83D, E85F
B6 was tested, and the Kd [2] was 0.1 nM and the Kd [3] was 55.6 nM.

B7: SEQ ID NO: 2 (designed binder)
chain: AMDDFAQYSAWAEIEALPNLTEMQKDQFIWSLMFDPSVSKEVLGEAQKLNDSQAPK
notes: also called 187029 del2N
B7 was tested, and the Kd [4] was < 0.5 nM.

B8: SEQ ID NO: 2_M2K (designed binder)
chain: B7 chain with M2K
B8 was tested, and the Kd [5] was < 0.5 nM.

B9: SEQ ID NO: 2_F5E (designed binder)
chain: B7 chain with F5E
For B9, the Kd [6] was < 0.5 nM.

B10: SEQ ID NO: 2_K25R (designed binder)
chain: B7 chain with K25R
In the case of B10, the Kd [7] is reported as < 0.5 nM.

B11: SEQ ID NO: 2_D3F (designed binder)
chain: B7 chain with D3F
In the case of B11, the Kd [8] is reported as < 0.5 nM.

B12: SEQ ID NO: 2_Y8Q (designed binder)
chain: B7 chain with Y8Q
In the case of B12, the Kd [9] is reported as < 0.5 nM.

B13: SEQ ID NO: 2_A16H (designed binder)
chain: B7 chain with A16H
With B13 the Kd [10] was < 0.5 nM.

B14: SEQ ID NO: 2_M23E (designed binder)
chain: B7 chain with M23E
For B14, the Kd [11] was < 0.5 nM.

B15: affinity ligand 187029 (designed binder)
chain: NAAMDDFAQYSAWAEIEALPNLTEMQKDQFIWSLMFDPSVSKEVLGEAQKLNDSQAPK
notes: Artificial mosaic protein of Protein A-like structure
For B15, the Kd [12] was < 0.5 nM, the Kd [13] was 5.9 nM and the Kd [14] was 75.5 nM. The Kd [15] was 1.3 nM and the Kd [16] was 52.9 nM.

B16: affinity ligand 187028 (designed binder)
chain: B15 chain with M4R, D5S, F7E
Binder B16 has a Kd [13] of 2.5 nM, a Kd [14] of 47.3 nM and a Kd [15] of 0.6 nM. For the same binder, the Kd [16] was 66.2 nM.
